B1: GpH7-A5/GpH7-B3 variant S337_10E/GpL16-k0 (antibody, human IgG1, kappa)
heavy 1: not shown
heavy 2: not shown
light: DIVMTQSPLSLPVTPGEPASISCQASESLVHSNRNTYLHWYLQKPGQSPQLLIYKVSNRFSGVPDRFSGSGSGTDFTLKISRVEAEDVGVYYCSQNTHVPPTFGQGTKVEIERTVAAPSVFIFPPSDEQLKSGTASVVCLLNNFYPREAKVQWKVDNALQSGNSQESVTEQDSKDSTYSLSSTLTLSKADYEKHKVYACEVTHQGLSSPVTKSFNRGEC
notes: also called He Ab S337_10E
B2: GpH7-A5/GpH7-B3 variant S337_09D/GpL16-k0 (antibody, human IgG1, kappa)
heavy 1: not shown
heavy 2: not shown
light: B1 light
notes: also called He Ab S337_09D
B3: GpH7-A5/GpH7-B3 variant T335_10E/GpL16-k0 (antibody, human IgG1, kappa)
heavy 1: not shown
heavy 2: not shown
light: B1 light
notes: also called He Ab T335_10E
B4: GpH7-A5/GpH7-B3 variant K334_08L/GpL16-k0 (antibody, human IgG1, kappa)
heavy 1: not shown
heavy 2: not shown
light: B1 light
notes: also called He Ab K334_08L
B5: GpH7-A5/GpH7-B3 variant Q295_02A/GpL16-k0 (antibody, human IgG1, kappa)
heavy 1: not shown
heavy 2: not shown
light: B1 light
notes: also called He Ab Q295_02A
B6: GpH7-A5/GpH7-B3 variant S337_18N/GpL16-k0 (antibody, human IgG1, kappa)
heavy 1: not shown
heavy 2: not shown
light: B1 light
notes: also called He Ab S337_18N
B7: GpH7-A5/GpH7-B3 variant K334_14T/GpL16-k0 (antibody, human IgG1, kappa)
heavy 1: not shown
heavy 2: not shown
light: B1 light
notes: also called He Ab K334_14T
B8: GpH7-A5/GpH7-B3 variant K326_19Q/GpL16-k0 (antibody, human IgG1, kappa)
heavy 1: not shown
heavy 2: not shown
light: B1 light
notes: also called He Ab K326_19Q
B9: GpH7-A5/GpH7-B3 variant K334_19Q/GpL16-k0 (antibody, human IgG1, kappa)
heavy 1: not shown
heavy 2: not shown
light: B1 light
notes: also called He Ab K334_19Q
B10: GpH7-A5/GpH7-B3 variant Q295_10E/GpL16-k0 (antibody, human IgG1, kappa)
heavy 1: not shown
heavy 2: not shown
light: B1 light
notes: also called He Ab Q295_10E
B11: GpH7-A5/GpH7-B3 variant K334_04F/GpL16-k0 (antibody, human IgG1, kappa)
heavy 1: not shown
heavy 2: not shown
light: B1 light
notes: also called He Ab K334_04F
B12: GpH7-A5/GpH7-B3 variant K334_09D/GpL16-k0 (antibody, human IgG1, kappa)
heavy 1: not shown
heavy 2: not shown
light: B1 light
notes: also called He Ab K334_09D
B13: GpH7-A5/GpH7-B3 variant S267_02A/GpL16-k0 (antibody, human IgG1, kappa)
heavy 1: not shown
heavy 2: not shown
light: B1 light
notes: also called He Ab S267_02A
B14: GpH7-A5/GpH7-B3 variant K334_13S/GpL16-k0 (antibody, human IgG1, kappa)
heavy 1: not shown
heavy 2: not shown
light: B1 light
notes: also called He Ab K334_13S
B15: GpH7-A5/GpH7-B3 variant K334_03V/GpL16-k0 (antibody, human IgG1, kappa)
heavy 1: not shown
heavy 2: not shown
light: B1 light
notes: also called He Ab K334_03V
B16: GpH7-A5/GpH7-B3 variant K326_14T/GpL16-k0 (antibody, human IgG1, kappa)
heavy 1: not shown
heavy 2: not shown
light: B1 light
notes: also called He Ab K326_14T
B17: GpH7-A5/GpH7-B3 variant S267_09D/GpL16-k0 (antibody, human IgG1, kappa)
heavy 1: not shown
heavy 2: not shown
light: B1 light
notes: also called He Ab S267_09D
B18: GpH7-A5/GpH7-B3 variant Q295_14T/GpL16-k0 (antibody, human IgG1, kappa)
heavy 1: not shown
heavy 2: not shown
light: B1 light
notes: also called He Ab Q295_14T
B19: GpH7-A5/GpH7-B3 variant K334_18N/GpL16-k0 (antibody, human IgG1, kappa)
heavy 1: not shown
heavy 2: not shown
light: B1 light
notes: also called He Ab K334_18N
B20: GpH7-A5/GpH7-B3 variant T335_07I/GpL16-k0 (antibody, human IgG1, kappa)
heavy 1: not shown
heavy 2: not shown
light: B1 light
notes: also called He Ab T335_07I
B21: GpH7-A5/GpH7-B3 variant S298_14T/GpL16-k0 (antibody, human IgG1, kappa)
heavy 1: not shown
heavy 2: not shown
light: B1 light
notes: also called He Ab S298_14T
B22: GpH7-A5/GpH7-B3 variant K334_05P/GpL16-k0 (antibody, human IgG1, kappa)
heavy 1: not shown
heavy 2: not shown
light: B1 light
notes: also called He Ab K334_05P
B23: GpH7-A5/GpH7-B3 variant K326_15Y/GpL16-k0 (antibody, human IgG1, kappa)
heavy 1: not shown
heavy 2: not shown
light: B1 light
notes: also called He Ab K326_15Y
B24: GpH7-A5/GpH7-B3 variant K334_10E/GpL16-k0 (antibody, human IgG1, kappa)
heavy 1: not shown
heavy 2: not shown
light: B1 light
notes: also called He Ab K334_10E
B25: GpH7-A5/GpH7-B3 variant K334_02A/GpL16-k0 (antibody, human IgG1, kappa)
heavy 1: not shown
heavy 2: not shown
light: B1 light
notes: also called He Ab K334_02A
B26: GpH7-A5/GpH7-B3 variant K334_07I/GpL16-k0 (antibody, human IgG1, kappa)
heavy 1: not shown
heavy 2: not shown
light: B1 light
notes: also called He Ab K334_07I
B27: GpH7-A5/GpH7-B3 variant K326_10E/GpL16-k0 (antibody, human IgG1, kappa)
heavy 1: not shown
heavy 2: not shown
light: B1 light
notes: also called He Ab K326_10E
B28: GpH7-A5/GpH7-B3 variant K334_16H/GpL16-k0 (antibody, human IgG1, kappa)
heavy 1: not shown
heavy 2: not shown
light: B1 light
notes: also called He Ab K334_16H

Biological target: T1, FcγRIIIa extracellular domain with C-terminal His tag (human, UniProt P08637 17-208)
T1 construct: extracellular domain; also called FcgRIIIa; 3a; not shown: His tag attached to the C terminus
T1 sequence (P08637 17-208): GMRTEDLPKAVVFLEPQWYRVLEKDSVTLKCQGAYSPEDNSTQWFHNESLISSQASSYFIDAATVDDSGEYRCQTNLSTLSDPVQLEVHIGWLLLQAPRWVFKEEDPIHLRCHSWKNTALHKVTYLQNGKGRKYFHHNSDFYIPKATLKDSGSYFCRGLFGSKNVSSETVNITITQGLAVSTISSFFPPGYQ
Assay: SPR Biacore, captured antibody, FcγR analyte, relative binding
How it was run: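 Binding of FcγR analyte to peptide-captured antibody is read by surface plasmon resonance at 25° C in HBS-EP+ buffer. Capture surfaces carry antigen peptide, either amine-coupled or biotin/streptavidin-bound.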

Row | He/Con_3a | Binder
1 | 105 % of HeCon Ab GpH7-A5/GpH7-B3/GpL16-k0 (=100) | B1
2 | 110 % of HeCon Ab GpH7-A5/GpH7-B3/GpL16-k0 (=100) | B2
3 | 107 % of HeCon Ab GpH7-A5/GpH7-B3/GpL16-k0 (=100) | B3
4 | 143 % of HeCon Ab GpH7-A5/GpH7-B3/GpL16-k0 (=100) | B4
5 | 106 % of HeCon Ab GpH7-A5/GpH7-B3/GpL16-k0 (=100) | B5
6 | 104 % of HeCon Ab GpH7-A5/GpH7-B3/GpL16-k0 (=100) | B6
7 | 141 % of HeCon Ab GpH7-A5/GpH7-B3/GpL16-k0 (=100) | B7
8 | 106 % of HeCon Ab GpH7-A5/GpH7-B3/GpL16-k0 (=100) | B8
9 | 136 % of HeCon Ab GpH7-A5/GpH7-B3/GpL16-k0 (=100) | B9
10 | 100 % of HeCon Ab GpH7-A5/GpH7-B3/GpL16-k0 (=100) | B10
11 | 148 % of HeCon Ab GpH7-A5/GpH7-B3/GpL16-k0 (=100) | B11
12 | 160 % of HeCon Ab GpH7-A5/GpH7-B3/GpL16-k0 (=100) | B12
13 | 150 % of HeCon Ab GpH7-A5/GpH7-B3/GpL16-k0 (=100) | B13
14 | 145 % of HeCon Ab GpH7-A5/GpH7-B3/GpL16-k0 (=100) | B14
15 | 150 % of HeCon Ab GpH7-A5/GpH7-B3/GpL16-k0 (=100) | B15
16 | 126 % of HeCon Ab GpH7-A5/GpH7-B3/GpL16-k0 (=100) | B16
17 | 181 % of HeCon Ab GpH7-A5/GpH7-B3/GpL16-k0 (=100) | B17
18 | 115 % of HeCon Ab GpH7-A5/GpH7-B3/GpL16-k0 (=100) | B18
19 | 136 % of HeCon Ab GpH7-A5/GpH7-B3/GpL16-k0 (=100) | B19
20 | 107 % of HeCon Ab GpH7-A5/GpH7-B3/GpL16-k0 (=100) | B20
21 | 113 % of HeCon Ab GpH7-A5/GpH7-B3/GpL16-k0 (=100) | B21
22 | 134 % of HeCon Ab GpH7-A5/GpH7-B3/GpL16-k0 (=100) | B22
23 | 112 % of HeCon Ab GpH7-A5/GpH7-B3/GpL16-k0 (=100) | B23
24 | 181 % of HeCon Ab GpH7-A5/GpH7-B3/GpL16-k0 (=100) | B24
25 | 147 % of HeCon Ab GpH7-A5/GpH7-B3/GpL16-k0 (=100) | B25
26 | 151 % of HeCon Ab GpH7-A5/GpH7-B3/GpL16-k0 (=100) | B26
27 | 124 % of HeCon Ab GpH7-A5/GpH7-B3/GpL16-k0 (=100) | B27
28 | 134 % of HeCon Ab GpH7-A5/GpH7-B3/GpL16-k0 (=100) | B28

Source: patent US20150344570A1 (published 2015)
